Results reported in patent US20230086603A1 (BOLT BIOTHERAPEUTICS, published 2023).
Substitutions are numbered along the chain they refer to.

B1: 9 (antibody, V domains shown)
VH: QVQLVQSGAEVKKPGASVKVSCKASGHSFTHYYMHWVRQAPGQGLEWMGWMNPDSGSTGYAQKFQGRVTMTRDTSTSTVYMELSSLRSEDTAVYYCARALFPYPFYYYYMDVWGQGTLVTVSS
VL: DIQMTQSPSSLSASVGDRVTITCRASQGIRNDLGWYQQKPGKAPKLLIYSASNLQSGVPSRFSGSGSGTDFTLTISSLQPEDFATYYCQQANSFPFTFGGGTKVEIK
B2: 16 (antibody, V domains shown)
VH: QVQLVQSGAEVKKPGSSVKVSCKASGGTFSSYAISWVRQAPGQGLEWMGGIIPIFGTANYAQKFQGRVTITADESTSTAYMELSSLRSEDTAVYYCARGGYSYGSFQHWGQGTLVTVSS
VL: B1 VL with R30S, D32N, G34N, S50A, S52T, N53T, A91S, N92Y, F94T, F96Y
B3: 27 (antibody, V domains shown)
VH: QVQLVQSGAEVKKPGASVKVSCKASGYTFTNYYIHWVRQAPGQGLEWMGWMSPNGGNTGYAQKFQGRVTMTRDTSTSTVYMELSSLRSEDTAVYYCARESWELTGFDYWGQGTLVTVSS
VL: B1 VL with R24Q, R30S, D32Y, G34A, S50D, N53S, A91S, N92Y, F94T, F96L
B4: 13 (antibody, V domains shown)
VH: QVQLVQSGAEVKKPGASVKVSCKASGYPFTSYYMHWVRQAPGQGLEWMGWMNPNSDIAGYAQKFQGRVTMTRDTSTSTVYMELSSLRSEDTAVYYCAREGRHGEYLYWGQGTLVTVSS
VL: B1 VL with G28I, R30S, N31S, D32Y, G34N, S50A, N53S, A91G, N92F, F94T
B5: 18 (antibody, V domains shown)
VH: QVQLVQSGAEVKKPGASVKVSCKASGYTFTSYYMHWVRQAPGQGLEWVGWMTPSTGNAGYAQKFQGRVTMTRDTSTSTVYMELSSLRSEDTAVYYCAREEWLGHFQHWGQGTLVTVSS
VL: B1 VL with R30S, D32G, G34S, S50A, N53T, A91S, N92H, F94T, F96L
B6: 1 (antibody, V domains shown)
VH: QVQLVQSGAEVKKPGASVKVSCKASGGTFSSYAISWVRQAPGQGLEWMGVINPSAGSTDYAQKFQGRVTMTRDTSTSTVYMELSSLRSEDTAVYYCARDLYPYVVVVAAGSYGMDVWGQGTLVTVSS
VL: B1 VL with R30D, N31S, D32Y, G34A, S50A, N53S, A91S, N92Y, F94T, F96I
B7: 36 (antibody, V domains shown)
VH: B2 VH with S31T, Y32F, A33G, Q107D, H108Y
VL: DIQMTQSPSSLSASVGDRVTITCRASQGISNNLNWYQQKPGKAPKLLIYATSTLQSGVPSRFSGSGSGTDFTLTISSLQPEDFATYYCQQSYSTPYTFGQGTKVEIK
B8: 11 (antibody, V domains shown)
VH: QVQLVQSGAEVKKPGASVKVSCKASGYTFTNYYIHWVRQAPGQGLEWLGWMNPNGDVAGYADSFQGRVTMTRDTSTSTVYMELSSLRSEDTAVYYCAIDSSGWMRNDAFDIWGQGTLVTVSS
VL: DIQMTQSPSSLSASVGDRVTITCRASQGISQYLAWYQQKPGKAPKLLIYGASNLHSGVPSRFSGSGSGTDFTLTISSLQPEDFATYYCQQTFITPLTFGGGTKVEIK
B9: 2 (antibody, V domains shown)
VH: QVQLVQSGAEVKKPGASVKVSCKASGYTFTSYYMHWVRQAPGQGLEWMGWMNPNSDIAGYAQKFQGRVTMTRDTSTSTVYMELSSLRSEDTAVYYCAIPSIVGAYDAFDIWGQGTLVTVSS
VL: B7 VL with G28S, N31S, N32W, N34A, T51A, T53S, S93T, Y96I, Q100G
B10: 14 (antibody, V domains shown)
VH: QVQLVQSGAEVKKPGASVKVSCKASGYRFTTYYVHWVRQAPGQGLEWMGWMNPNTVYTGSAQKFQGRVTMTRDTSTSTVYMELSSLRSEDTAVYYCAREGWGSSGYFDYWGQGTLVTVSS
VL: B7 VL with R24Q, G28D, N32Y, T51A, T53S, Y92F, S93T, T94N, Y96V, Q100G
B11: 23 (antibody, V domains shown)
VH: QVQLVQSGAEVKKPGASVKVSCKASGYTFTGYYMHWVRQAPGQGLEWMGWISPNSGVTDFTQKFQGRVTMTRDTSTSTVYMELSSLRSEDTAVYYCARESWSGEFDYWGQGTLVTVSS
VL: B7 VL with G28S, S30T, N31T, N32Y, T51A, T53S, S56G
B12: 22 (antibody, V domains shown)
VH: QVQLVQSGAEVKKPGASVKVSCKASGYTFTGYTLHWVRQAPGQGLEWMGWIDPNSGVTSSAQKFQGRVTMTRDTSTSTVYMELSSLRSEDTAVYYCARESEVMMAYFQHWGQGTLVTVSS
VL: B7 VL with R24Q, G28D, N31S, N32Y, T51A, T53S, S56T, V104L
B13: 17 (antibody, V domains shown)
VH: QVQLVQSGAEVKKPGASVKVSCKASGDTFTRHYVHWVRQAPGQGLEWMGWMSPSSGITGYAQKFQGRVTMTRDTSTSTVYMELSSLRSEDTAVYYCARVRWSSDAFDIWGQGTLVTVSS
VL: not shown
B14: 12 (antibody, V domains shown)
VH: QVQLVQSGAEVKKPGASVKVSCKASGGTFSNYMYHWVRQAPGQGLEWMGWISTYHGSTNYAQKFQGRVTMTRDTSTSTVYMELSSLRSEDTAVYYCARDARGYSGYDLWGQGTLVTVSS
VL: DIQMTQSPSSLSASVGDRVTITCRASQIIGNYLAWYQQKPGKAPKLLIYHASILETGVPSRFSGSGSGTDFTLTISSLQPEDFATYYCQQSYSTPTFGGGTKVEIK
B15: 19 (antibody, V domains shown)
VH: QVQLVQSGAEVKKPGASVKVSCKASGYTFTSHYMHWVRQAPGQGLEWMGWMNPNSGNTGYAQKFQGRVTMTRDTSTSTVYMELSSLRSEDTAVYYCARERFLGGMDVWGQGTTVTVSS
VL: B7 VL with G28S, S30T, N31G, N32W, N34A, T51A, T53S
B16: 26 (antibody, V domains shown)
VH: QVQLAQSGAEVKKPGASVKVSCKASGYTFTNHYMHWVRQAPGQGLEWMGWMNPNSGNTGYAQKFQGRVTMTRDTSTSTVYMELSSLRSEDTAVYYCARDRWDGDYYSAWGQGTLVTVSS
VL: B7 VL with G28S, N32W, N34A, A50D, T51V, T53H, Q55E, Y96F, Q100P, E105D
B17: 31 (antibody, V domains shown)
VH: B5 VH with V48M, M51L, N57H, E100G, W101Y, L102G, H104N, F105Y, Q106G, H107N
VL: DIQMTQSPSSLSASVGDRVTITCRASQSISPWLAWYQQKPGKAPKLLIYDASNLETGVPSRFSGSGSGTDFTLTISSLQPEDFATYYCQQTYSTPITFGQGTRLEIK
B18: 25 (antibody, V domains shown)
VH: QVQLVQSGAEVKKPGASVKVSCKASGYTFTGYYMHWVRQAPGQGLEWMGWMNPNSDIAGYAQKFQGRVTMTRDTSTSTVYMELSSLRSEDTAVYYCARDAWELLAFDIWGQGTLVTVSS
VL: B17 VL with I29V, P31T, D50A, T56S, T91S, I96Y, R103K
B19: 20 (antibody, V domains shown)
VH: B5 VH with S31D, V48M, T52H, S54N, T55S, N57H, A58T, Y80N
VL: B17 VL with P31S, S52T, N53H, T91S
B20: 28 (antibody, V domains shown)
VH: B15 VH with H32Y, L102A, V107A
VL: EIVMTQSPATLSVSPGERATLSCRASQSLSSSSLAWYQQKPGQAPRLLIYGASTRATGIPARFSGSGSGTEFTLTISSLQSEDFAVYYCQQYGSSPFTFGPGTKVDIK
B21: 30 (antibody, V domains shown)
VH: B15 VH with T28P, T30S, S31T, H32Y, N54H, G56A, N57D, Q62E, R100V, L102E
VL: DIQMTQSPSSLSASVGDRVTITCRASQSVGSWVAWYQQKPGKAPKLLIYPASTLQSGVPSRFSGSGSGTDFTLTISSLQPEDFATYYCQQSYSTPLTFGGGTKVEIK
B22: 24 (antibody, V domains shown)
VH: B15 VH with Y27D, S31N, N57H, K63R, R100A, F101V, L102A, G104P
VL: not shown
B23: 29 (antibody, V domains shown)
VH: QVQLVQSGAEVKKPGASVKVSCKASGYTFSNSYMHWVRQAPGQGLEWMGWMDPSSGYTGSAHKFQGRVTMTRDTSTSTVYMELSSLRSEDTAVYYCAEDSGGAFDIWGQGTMVTVSS
VL: B7 VL with Q27E, G28H, S30A, N32W, N34A, A50G, T51V, T53S, Q55E, V104L

molecular target: T1, human PD-L1 (hPD-L1) (human, UniProt Q9NZQ7 19-290); assay: flow cytometry on JIMT-1 cells expressing endogenous human PD-L1; anti-human IgG Fc secondary; geometric MFI
T1 construct: Endogenous hPD-L1 on JIMT1 (JIMT-1) cells; also called programmed death-ligand 1; CD274
Description: Binding of the binding agents of an embodiment of the invention to human PD-L1 (hPD-L1) on cell surfaces was assessed by incubating the binding agents with JIMT1 cells that express endogenous hPD-L1. Briefly, the binding agents were diluted serially in FACS buffer (PBS+1% FBS+5 mM EDTA, pH 7.4) at 4° C. Diluted binding agents were applied to JIMT1 cells (˜1×10⁵-2×10⁵ per well) and incubated at 4° C. […] After unbound secondary antibody was washed out, cells were resuspended in FACS buffer plus 2% formaldehyde and analyzed by flow cytometry. The intensity of fluorescence, expressed as geometric mean fluorescence intensity, was used to determine anti-PDL1 binding agent binding to hPD-L1 on cell surface.

T1 sequence (Q9NZQ7 19-290 limits assumed): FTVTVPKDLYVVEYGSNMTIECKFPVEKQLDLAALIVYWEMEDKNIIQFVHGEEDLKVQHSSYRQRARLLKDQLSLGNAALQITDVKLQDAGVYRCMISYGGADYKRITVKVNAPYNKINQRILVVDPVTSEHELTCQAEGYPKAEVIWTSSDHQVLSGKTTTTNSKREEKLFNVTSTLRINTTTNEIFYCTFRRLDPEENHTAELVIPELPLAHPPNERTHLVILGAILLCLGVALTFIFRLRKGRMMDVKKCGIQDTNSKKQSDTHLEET

Binding result, binds:
B1
B2
B3
B4
B5
B6
B7
B8
B9
B10
B11
B12
B13
B14
B15
B16
B17
B18
B19
B20
B21
B22
B23
